Values of other authors, collected in patent US7408028B2, “Peptides, antibodies thereto, and their use in treatment of central nervous system, damage” (Sinapore General Hospital Pte Ltd., priority 2002, dated 2008).

Test system: postnatal day 1 hippocampal neurons
Details: coated protein; cited from earlier work

B1: denatured rMAG: denatured recombinant MAG (protein, UniProt P20916 20-626, looked up)
Myelin-associated glycoprotein: GHWGAWMPSSISAFEGTCVSIPCRFDFPDELRPAVVHGVWYFNSPYPKNYPPVVFKSRTQVVHESFQGRSRLLGDLGLRNCTLLLSNVSPELGGKYYFRGDLGGYNQYTFSEHSVLDIVNTPNIVVPPEVVAGTEVEVSCMVPDNCPELRPELSWLGHEGLGEPAVLGRLREDEGTWVQVSLLHFVPTREANGHRLGCQASFPNTTLQFEGYASMDVKYPPVIVEMNSSVEAIEGSHVSLLCGADSNPPPLLTWMRDGTVLREAVAESLLLELEEVTPAEDGVYACLAENAYGQDNRTVGLSVMYAPWKPTVNGTMVAVEGETVSILCSTQSNPDPILTIFKEKQILSTVIYESELQLELPAVSPEDDGEYWCVAENQYGQRATAFNLSVEFAPVLLLESHCAAARDTVQCLCVVKSNPEPSVAFELPSRNVTVNESEREFVYSERSGLVLTSILTLRGQAQAPPRVICTARNLYGAKSLELPFQGAHRLMWAKIGPVGAVVAFAILIAIVCYITQTRRKKNVTESPSFSAGDNPPVLFSSDFRISGAPEKYESERRLGSERRLLGLRGEPPELDLSYSHSDLGKRPTKDSYTLTEELAEYAEIRVK
modifications: denatured recombinant
notes: denatured recombinant MAG
Q: Which “Axonal growth cones collapsed” value does the source give for B1 here?
A: not observed
